Patent US20060035329A1 (CARNEGIE INSTITUTION OF WASHINGTON, published 2006)

T1: hr fusion protein (hr amino acids 575-1215 fused to either GST or TrpE; which one is not said) (rat, UniProt P97609 549-1181)
T1 construct: also called the hr fusion protein; not shown: fusion partner is GST or TrpE
T1 sequence: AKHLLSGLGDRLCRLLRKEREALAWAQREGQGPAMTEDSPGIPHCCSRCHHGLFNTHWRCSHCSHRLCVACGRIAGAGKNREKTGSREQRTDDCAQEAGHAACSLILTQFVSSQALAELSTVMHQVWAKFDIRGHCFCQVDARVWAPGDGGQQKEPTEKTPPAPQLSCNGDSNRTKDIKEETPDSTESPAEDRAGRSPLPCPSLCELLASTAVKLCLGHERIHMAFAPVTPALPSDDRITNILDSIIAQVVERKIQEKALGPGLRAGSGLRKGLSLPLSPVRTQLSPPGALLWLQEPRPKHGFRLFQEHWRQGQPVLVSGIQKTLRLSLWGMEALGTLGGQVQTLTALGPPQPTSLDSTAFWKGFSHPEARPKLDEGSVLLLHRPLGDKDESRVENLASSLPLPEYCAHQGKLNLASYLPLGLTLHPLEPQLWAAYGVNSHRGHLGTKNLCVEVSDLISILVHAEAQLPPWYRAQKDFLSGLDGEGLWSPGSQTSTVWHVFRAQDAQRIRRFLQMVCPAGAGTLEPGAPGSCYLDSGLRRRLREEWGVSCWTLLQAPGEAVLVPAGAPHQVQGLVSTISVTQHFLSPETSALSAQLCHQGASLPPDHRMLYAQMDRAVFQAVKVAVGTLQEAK


What was measured:
[1] = molecular target: LexA-hr (hr amino acids 575-1215 fused to the lexA DNA binding domain) (rat); experiment: yeast two-hybrid, β-galactosidase activity with TRIAC (10^-6 M) against without hormone
[2] = molecular target: TR (thyroid hormone receptor co-expressed with hr in the reporter assay); experiment: cell-based or functional assay
[3] = molecular target: T1, hr fusion protein (hr amino acids …); experiment: far western, 35S-labeled probe on immobilized hr fusion protein
Description: Extracts from bacteria expressing fusion proteins were separated by SDS-polyacrylamide gel electrophoresis and transferred to nitrocellulose.
To examine the specificity of interaction between TR and hr, hr was tested for interaction with TRβ1, retinoic acid receptor (RAR) and retinoid X receptor (RXR).

binding result [3] | Molecule | further results
– | TRα1 (as tested in the two-hybrid assay) (receptor) | fold reduction of interaction by hormone [1]: 2 fold
– | hr (hairless gene product expressed from an expression construct containing the hr gene) (from UniProt P97609 1-1181) | thyroid hormone induced transcription (TRE-containing reporter) [2]: 2 fold
no binding | 35S-RAR (retinoic acid receptor, from pCMX hRARα) (receptor, human, UniProt P10276 1-462, looked up, 35S-methionine label) MASNSSSCPTPGGGHLNGYPVPPYAFFFPPMLGGLSPPGALTTLQHQLPVSGYSTPSPATIETQSSSSEEIVPSPPSPPPLPRIYKPCFVCQDKSSGYHYGVSACEGCKGFFRRSIQKNMVYTCHRDKNCIINKVTRNRCQYCRLQKCFEVGMSKESVRNDRNKKKKEVPKPECSESYTLTPEVGELIEKVRKAHQETFPALCQLGKYTTNNSSEQRVSLDIDLWDKFSELSTKCIIKTVEFAKQLPGFTTLTIADQITLLKAACLDILILRICTRYTPEQDTMTFSDGLTLNRTQMHNAGFGPLTDLVFAFANQLLPLEMDDAETGLLSAICLICGDRQDLEQPDRVDMLQEPLLEALKVYVRKRRPSRPHMFPKMLMKITDLRSISAKGAERVITLKMEIPGSMPPLIQEMLENSEGLDTLSGQPGGGGRDGGGLAPPPGSCSPSLSPSSNRSSPATHSP | –
no binding | 35S-RXR (retinoid X receptor, from pCMX hRXRα) (receptor, human, UniProt P19793 1-462, looked up, 35S-methionine label) MDTKHFLPLDFSTQVNSSLTSPTGRGSMAAPSLHPSLGPGIGSPGQLHSPISTLSSPINGMGPPFSVISSPMGPHSMSVPTTPTLGFSTGSPQLSSPMNPVSSSEDIKPPLGLNGVLKVPAHPSGNMASFTKHICAICGDRSSGKHYGVYSCEGCKGFFKRTVRKDLTYTCRDNKDCLIDKRQRNRCQYCRYQKCLAMGMKREAVQEERQRGKDRNENEVESTSSANEDMPVERILEAELAVEPKTETYVEANMGLNPSSPNDPVTNICQAADKQLFTLVEWAKRIPHFSELPLDDQVILLRAGWNELLIASFSHRSIAVKDGILLATGLHVHRNSAHSAGVGAIFDRVLTELVSKMRDMQMDKTELGCLRAIVLFNPDSKGLSNPAEVEALREKVYASLEAYCKHKYPEQPGRFAKLLLRLPALRSIGLKCLEHLFFFKLIGDTPIDTFLMEMLEAPHQMT | –
